Measured values published in the nanobody polyreactivity screen of Harvey et al. (2022).

Assay: yeast display, Sf9 membrane polyspecificity reagent, FACS + sequencing; frameworks hold sequencing errors
Outline: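 Sorting gates, low and high (top ~1%), were placed on anti-HA fluorescence to track expression and on streptavidin fluorescence to track reagent binding. A clone's polyreactivity label is taken from the gate it came out of. The reagent was 10% biotinylated, detergent-solubilized Sf9 membrane, applied for 1 hour at 4 °C to galactose-induced yeast display cells.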

| Sequence | polyreactivity (PSR sort gate) |
| --- | --- |
| QVQLVESGGGLVHAGGSLRLSCAPSGRTFPRYAMGWYRQAPGKERELVAAISVRAGITYYADSVKGRFTISRDNAKNTVYLQMNSLKPEDTAVYYCDKEHSSTSYDEGDYWGQGTQVTVSS | low polyreactivity |
| QVQLVESGGGLVQAGGSLRLSCAASGRIFYFNTMGWYRQAPGKERELVAAITGSGSSTYYADSVKGRFTISRDNAKNTVYLQMNSLKPEDTAVYYCAAYGFSRNGYTYGHDDWGQGTQVTVSS | low polyreactivity |
| QVQLVESGGGLVQAGGSLRLSCAASGRTFVPNALGWYRQAPGKERELVAALSWSGDSTYYADSVKGRFTISRDNAKNTVYLQMNSLKPEDTAVYYCAADPFFGVSIGGLKYHFDYWGQGTQVTVSS | low polyreactivity |
| QVQLVESGGGLVQAGGSLRLSCAASGFIFYRNTMGWYRQAPGKERELDAAISWSGARTYYADSVKGRFTISRDNAKNTVYLQMNSLKPEDTAVYYCNTVFYLHSTTTNGDYWGQGTQVTVSS | high polyreactivity |
| QVQLVESGGCLVQAGGSLRLSCAASGSTFWWNTMGWYRQAPGKERELVADIRTSGGGTYYADSVKGRFTISRDNAKNTVYLQMNSLKPEDTAVYYCNADPKWEMGSWGQGTQVTVSS | low polyreactivity |
| QVQLVESGGGLVQAGGSLRLSCAASGNPFTWYTMGWYRPAPGKERDLVAVSTSDGSKYYADSVKGRFTISRDNAKNTVYLQMNSLKPEDTAVYYCNAGGGTNYGSGYWYGYYYWGQGTQVTVSS | low polyreactivity |
| QVQLVESGGGLVQAGGSLRLSCAASGFTFPFYAMGWYRQAPGKERELVAPISRSGTRTYYADSVKGRFTISRDNAKNTVYLQMNSLKPEDTAVYYCAAAYHNGYLSEGYWEHYYWGQGTQVTVSS | high polyreactivity |
| QVQLVESGGGLVQAGGSLRLSCAASGYTILTNAMGWYRQAPGKERELVADITSSGGSTYYADSVKGRFTISRDNAKNTVYLQMNSLKPEDTAVYYCAKRWYRNRYGYWGQGTQVTVSS | high polyreactivity |
| QVQLVESGGGLVQAGGSLRLSCAASGTTFRIYSMGWYRQAPGKERELVAGITRRGGSTFYADSVKGRFTISRDTAKNTVYFQMNSLKPEDTAVYYCAARFRGGMDYWGQGTQVTVSS | high polyreactivity |
| QVQLVESGGGLVQAGGSLRLSCAASGSIFQYYTMGWYRQAPGKERELVATISRRGGTTYYADSVKGRFTISRDNAKNTVYLQMNILKPEDTAVYYCNADSRTYRYYWSYGYWGQGTQVTVSS | high polyreactivity |
| QVQLVESGGGLVQAGGSLRLSCAASGRTFHSNAMGWYRKAPGKERELVAAIRFGGGSTYYADSVKGRFTISRDNAKNTVYLQMNSLKPEDTAVYYCNASPLWIGWEIVPVGSSHYDYWGQGTQVTVSS | low polyreactivity |
| QVQLVESGGGLVQAGGSLRLSCAPSGSTFAYYAMGWYRQAPGKEREFVAAISTRGGSTYYADSVKGRFTISRDNAKNTVYFQMNSLKPEDTAVYYCAAGYFIYSWRIRFDYLGQGTQVTVSS | high polyreactivity |
| QVQLVESGGGLVQAGGSLRLSCAASGNIFSGNAMGWYRQAPGKERELVAAISWSGGSTYYADSVKGRFTISRDNAKNTVYLQMNSLKPEDTAVYYCNKDLYADGQYNYDYWGQGTQVTVSS | low polyreactivity |
| QVQLVESGVGLVQAGGSLRLSCAASGSTFQWYAMGWYIQAPGKERELVAAINKSGGTTYYADSVKGRFTISRDNAKNTVYLLMNSLKPEDTAVYYCATDTPVVYQPGNMDYWGQGTQVTVSS | low polyreactivity |
| QVQLVESGGGLVQAGGSLRLSCAASGFIFRYYAMGWYRQAPGKERELVAAITSRGSSTYYADSVKGRFTISRDNAKNTVYLQMNSLKPEDTAVYYCAARLRGDYVRYDYWGQGTQVTVSS | high polyreactivity |
| QVQLVESGGGLVQAGGSLRLSCAASGFIFYRWYALGWYIQAPGKERELVAAIRSGGSTYYADSVKGRFTISRDNAKNTVYLQMNSLKPEDTAVYYCSTSGPQYYSRHFDYWGEGTQVTVSS | low polyreactivity |
| QVQLVESGGGLVQAGGSLRLSCAASGNIFKHYAMGWYRQAPGKERELVAAITWSGGSTHYADSVKGRFTISRDNAKNTVYFQMNSLKPEDTAVSYCAARGWWPGTKWTRYDYWGQGTQVTVSS | high polyreactivity |
| QVQLVESGGGLVQAGGSLRLSCAASGSLFGYNAIGRYRQARGKERELVAAITGSGGSTYYADSVKGRFTLSRDNAKNTVYFQMNSLKPEDTAVYYCADDLFGGPLGYWDYDYWGQGTQVTVSS | low polyreactivity |
| QVQLVESGGGLVHAGGSLRLSCAASGNTFWPYAMGWYRQAPGKERELVAAINYSGTRTYYSDSVKGRFTISRDNAKNTVYLQMNSLKPEDTAVYYCAKATSPPGTTAGGYDYWGQGTQVTVSS | low polyreactivity |
| QVQLVETGACLVQAGGSLRLSCAASGLTFFGYTMGRYRQAHGKEREFVADITWSGGSTYYADSVKGRFTISRDNAKNTVYLQMNSLKPEDTAVYYCAVAPPNWDPFVDDTYLMDYWGQGTQVTVSS | low polyreactivity |
| QVQLVESGGALVQAGGSLRISCAASGSIFPQNAMGWYRQAPEKERELVAAITTGGGRTYYADSVKGRFTISRDNVKNTVYLQMNSLKPEDTAVYYCYIRWPFRHYGSWGLGTQVTVSS | high polyreactivity |
| QVQLVESGGGLVQAGGSLRLSCAASGRIFYSYARGWYRQAPGKERELVAAITESGGSTNYADSVKGRFTISRDNAKNSVYLQMNSLKPEDSAVYYCNARYKLTFNLYNYRGQGTQVTVSS | low polyreactivity |

| Sequence | polyreactivity (PSR sort gate) |
| --- | --- |
| QVQLVESGGGLVQAGGSLRLSCAASGRIFRFYAMGWYRPAPGKERELVAAISSRGGSTYYADSVKGRFTISRDNAKNTDYFQMNSLKPEDTAVYYCNAYGSTSQMDYWGQGTQVTVSS | high polyreactivity |
| QVQLVESGGGLVQAGGSLRLSCAASGRIFAYYAMGWYRQAPGKERELGATITGGGDRTYYADSVKGRFTISRDNAKNTVYLQMNSLKPEDTAVYYCNARVWYYSPYYYWGQRTQVTVSS | low polyreactivity |
| QDQLVESGGGLVQAGGSLRLSCAASGRIISLYAMGWYRQAPVKERDLVAAISRRSGNTNYADSVKGRFTISRDNAKNTVYLQMNSLKPEDTAVYYCAARPGAISSTSPYDYWGQGTQVTVSS | high polyreactivity |
| QVQLVESGGGLVQAGGSLRLSCAASGRTFYNYAMGWYRQAHGKERELVAAIDWGSDSTYYADYVKGRFTISRDNANNTVYLQMNRLKPEDTAVYYCAAYLVSVNSRTYDYWGQGTQVTVSS | low polyreactivity |
| QVQLVESGGGLVQAGGSLRLSCAASGFIFYVKAMGWYRKAPGKERELVASITNGGSTTYADSVKGRFTISRDNAKNTDDLQMNSLKPEDTAVYYCHASGLDFSYFDEFNYWGQGTQVTVSS | low polyreactivity |
| QVQLVESGGGLVQAGGSLRLSCAASGSTFYGYVMGWYRQAPGKERELVAGITRGGSTNYADSVKGRFTISRDNAKNTVYLQMNSLKPEDTAVYYCATRYFSRYYYWGQGTQVTVSS | high polyreactivity |
| QVQLVESGGGLVQAGGSLRLSCAASGRTFRYYAMGWYRQAPGKERELVAAITSGGSTYYADSVKGRFTISRDNAKNTVYLQMNSLKPEDTAVYYCNKDFTRTWTRHGDDYWGQGTQVTVSS | high polyreactivity |
| QVQLVESGGGLVQAGGSLRLSCAASGSTFDYNAMGWYRQAPGKERELVADITGSGASTSYADSVKGRFTISRDNAKNTVYLQMNSLKPEDTAVYFCAADQTPVGQVYYGTLSIRDYWGQGTQVTVSS | low polyreactivity |
| QVQLVESGGGLVQAGGSLLLSCAASGRIFRYYAMGWYRQATGKERELVAGISWRGSSTYYADSVKGRFTISRDNATNTVYLQMNSLKPEDTAVYYCNRDQSYIPFTGGRFYYWGQGTQVTVSS | high polyreactivity |
| QVQLVESGGGLVQAGGSLRLSCAASGYTFFFNVMGWYRQAPGKVRELVAAISYSGGSTNYADSVKGRFTISRDNAKNTVYLQMNSLKPEDTAVYYCNARSVSRNGYEDVYWGQGTQVTVSS | low polyreactivity |
| QVQLVESGGGLVQAGGSLRLSCAASGSIILQNAMGWYRQAPGKERELVAAITNGGSTNYADSVKGRFTISRDNAKNTVYLQMNSLKPEDTAVYYCAAYPLYTGSYDRGGYWGQGTQVTVSS | low polyreactivity |
| QVQLVESGGGLVQAGGSLRLSCAASGITFFYYAMGWYTQAPGKERELVAAISTSGGRTYYADSVKGRFTISRDNAKNTVYLQMHSLKPEDTAVYYCAARSRVQPAGPRYDYWGQGTQVTVSS | high polyreactivity |
| QVQLVESGGGLVQAGGTLRLSCAASGSIFGSYAMGWYRQAPGKERELVAAISGSGGRTYYADSVKGRFTISRDNAKNTVYVQMNSLKPEDTAVYYCAAAYPRVTYKYGYYWGQGTHVTVSS | high polyreactivity |
| QVQLVESRGGLVQAGGSLRLSCAASGFTFSWYAMGWYRQAPGKERELVAAITRSGGSTNYADSVKGRFTMSRDNAKNTVYLQMNSLKPEDTAVYYCAARYSPGFGYWGKGTQVTVSS | high polyreactivity |
| QVQLVESGGGLVQAGGSLRLSCAASGITFYRNAMGWYRQAPGKEMELVAAITWNGGRTYYADSVKGRFTISRDNAKNTVYLQMNSLKPEDTAVYYCAADSGTRNLASYRYYYWGQGTQVTVSS | low polyreactivity |
| QVQLVESGGGLVQAGGSLRLSCAASGSIFSQNAMGWYRQAPGKERELVAAITSSGGNTYADSVKGRFTISRDNAKNTVYLQMNRLKPEDTAVYYCAAGHLVILNRSEYYYWGQGSQVTVSS | low polyreactivity |
| QVQLVESGGGLVQAGGSLRLSCAASGFTLEFYAMVWYRQAPGKKRELVARITTYGGSTRYADSVKGRFTISRDNAKNTVYLKMNSLKPEDTAVYNCAARGYGYRNVETYGYWGQGTQVTVSS | high polyreactivity |
| QVQIVESGGGLVQAGGSIRLSCAASGSIFYDNDMGWYRQAPAKERELVAAISWSASDTYYADSVKGRFTISRDNAKNTVYLQMNSLKPEDTAVYYCNAEVYEWYVVYSALDYWGQGTQVTVSS | low polyreactivity |
| QVQLVESGGGLVQAGCSLRLSCAASGRTFYFYTMGWYRQAPGKVRELVAAISWSGGSTYYADSVKGRFTISRDNAKYTVYLQMNSLKPEDTAVYYCNAVFFKGSESGLDYWGQGTQVTVSS | high polyreactivity |
| QVQLVESGGGLVQAGGTIRLSCAASGIIFRLNPMGWYRQAPGKERELVAAIRRRGGSTYYADSVKGRFTISRDNGKNNVYLQMYSVKPEETEVYHCAKDPHGSDFGYWGQGTHVTVSS | low polyreactivity |
| QVQLVESGGGLVQAGGSLRLSCAASGFTFRGNAMGWYRQAPVKERELVAAITSSDDSTYYADSVKGRFTISRDLSKNTVYLQMNSLKPEDTAVYYCAAVANGYWTYEYWGQGTQVTVSS | low polyreactivity |
